Key:
HLA-A*02:19 = experiment: IEDB peptide-MHC binding, purified MHC/direct/fluorescence; filed as Kd, often an IC50 or EC50 that approximates it; ≥ and ≤ were set here for values at or beyond the usual limits of such assays; conditions: source organism: Vibrio cholerae V52
HLA-A*23:01 = experiment: as above; conditions: source organism: Vibrio cholerae V52
HLA-B*27:03 = experiment: as above; conditions: source organism: Vibrio cholerae V52
HLA-B*15:17 = experiment: as above; conditions: source organism: Vibrio cholerae V52
HLA-A*02:03 = experiment: as above; conditions: source organism: Vibrio cholerae V52
HLA-A*26:01 = experiment: as above; conditions: source organism: Vibrio cholerae V52
HLA-A*03:01 = experiment: as above; conditions: source organism: Vibrio cholerae V52
HLA-A*02:01 = experiment: as above; conditions: source organism: Vibrio cholerae V52
HLA-B*18:01 = experiment: as above; conditions: source organism: Vibrio cholerae V52
HLA-B*57:01 = experiment: as above; conditions: source organism: Vibrio cholerae V52
HLA-A*02:11 = experiment: as above; conditions: source organism: Vibrio cholerae V52
HLA-A*24:03 = experiment: as above; conditions: source organism: Vibrio cholerae V52
HLA-B*15:01 = experiment: as above; conditions: source organism: Vibrio cholerae V52
HLA-B*39:01 = experiment: as above; conditions: source organism: Vibrio cholerae V52
HLA-A*02:12 = experiment: as above; conditions: source organism: Vibrio cholerae V52
HLA-A*29:02 = experiment: as above; conditions: source organism: Vibrio cholerae V52
HLA-A*02:16 = experiment: as above; conditions: source organism: Vibrio cholerae V52
HLA-A*68:02 = experiment: as above; conditions: source organism: Vibrio cholerae V52
HLA-A*11:01 = experiment: IEDB peptide-MHC binding, purified MHC/competitive/fluorescence; filed as Kd, often an IC50 or EC50 that approximates it; ≥ and ≤ were set here for values at or beyond the usual limits of such assays; conditions: source organism: Vibrio cholerae 2740-80
HLA-A*30:01 = experiment: as above; conditions: source organism: Vibrio cholerae 2740-80
HLA-B*44:02 = experiment: as above; conditions: source organism: Vibrio cholerae 2740-80
HLA-A*30:02 = experiment: as above; conditions: source organism: Vibrio cholerae 2740-80
HLA-B*27:05 = experiment: as above; conditions: source organism: Vibrio cholerae 2740-80
HLA-B*58:01 = experiment: as above; conditions: source organism: Vibrio cholerae 2740-80
HLA-B*40:01 = experiment: as above; conditions: source organism: Vibrio cholerae 2740-80

With MGMEQTMSV the Kd (HLA-A*02:19) was ≥ 20 µM, the Kd (HLA-A*23:01) was ≥ 20 µM and the Kd (HLA-B*27:03) was ≥ 20 µM. The Kd (HLA-B*15:17) was ≥ 20 µM, the Kd (HLA-A*02:03) was ≥ 20 µM and the Kd (HLA-A*26:01) was ≥ 20 µM. The Kd (HLA-A*03:01) was ≥ 20 µM, the Kd (HLA-A*02:01) was ≥ 20 µM and the Kd (HLA-B*18:01) was ≥ 20 µM. The Kd (HLA-B*57:01) was ≥ 20 µM, the Kd (HLA-A*02:11) was ≥ 20 µM and the Kd (HLA-A*24:03) was ≥ 20 µM. For the same sequence, the Kd (HLA-B*15:01) was ≥ 20 µM, the Kd (HLA-B*39:01) was ≥ 20 µM and the Kd (HLA-A*02:12) was ≥ 20 µM. The Kd (HLA-A*29:02) was ≥ 20 µM, the Kd (HLA-A*02:16) was ≥ 20 µM and the Kd (HLA-A*68:02) was ≤ 0.001 µM. The Kd (HLA-A*11:01) was ≥ 5 µM, the Kd (HLA-A*30:01) was ≥ 5 µM and the Kd (HLA-B*44:02) was ≥ 5 µM. For the same sequence, the Kd (HLA-A*30:02) was ≥ 5 µM, the Kd (HLA-B*27:05) was ≥ 5 µM and the Kd (HLA-B*58:01) was ≥ 5 µM. For the same sequence, the Kd (HLA-B*40:01) was ≥ 5 µM.

From the Immune Epitope Database (IEDB)
